Test results as given in the supplement of paper PMC9170038.

Tested on: MS2 coat protein
Assay: apparent KD of MS2 coat protein; designed switch direction (-1 OFF switch, 1 ON switch): -1; higher = weaker reporter binding
Outline: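 Each step of the titration lasted 0.8–1.5 h at the lowest concentration and 10–20 min at the highest. The protein, SNAP-549-labelled MS2 coat protein, went from 0.7 or 1.5 nM doubling to 3 µM over RNA switches transcribed on Illumina chips by stalled E. coli RNA polymerase. Normalised cluster fluorescence was curve-fitted, and the per-design median over clusters is given as apparent KD.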

[1] = Eterna round: R95, input ligand: FMN 200 uM
[2] = Eterna round: R95, input ligand: microRNA oligo, concentration not stated
[3] = Eterna round: R95, input ligand: none
[4] = input ligand: microRNA oligo, concentration not stated

Sequence | apparent KD of MS2 coat protein [1] [nM] | apparent KD of MS2 coat protein [2] [nM] | apparent KD of MS2 coat protein [3] [nM] | apparent KD of MS2 coat protein (input ligand: FMN 200 uM) [nM] | apparent KD of MS2 coat protein (input ligand: none) [nM] | apparent KD of MS2 coat protein [4] [nM]
UAUAAGGUAGGAUAUACGAAUAAAUAGGGUAGAAUAAUAACACAUGAGGAUCACCCAUGUAGAAGGACCAAUAG [Mat - Exclusion 2 - Mod of my Tesla design - D27] (puzzle: Exclusion 2) | 58.9 | 21 | 17.2 | – | – | –
AGCGAUUCAGGAUAUACGGGUGGGCUGGAUCUUGGAGGAGUACAUGAGGAUCACCCAUGUAGAAGGGAAUUUUC [Eternabot (L2) Solution 35] (Eterna round: R97, puzzle: Exclusion 2) | – | – | – | 95.5 | 40.2 | –
AGAUCCUGAGUCAGGAUAUAGAGACGGUAGUCGGGCUAGAAGGGACAUGAGGAUCACCCAUGUGGGUUCUUGCC [Rilalera] (puzzle: Brourd's mod of Exclusion 4) | – | 10.1 | – | – | – | –
GGCGAAGUAGGAUAUACAUGAGGAUCACCCAUGUAACCAGAUGGCGUAGGUCUUCUAUGUAGAAGGGCUACGCC [jl-ex3-4.34 ViennaUCT mod] (Eterna round: R97, puzzle: Exclusion 3) | – | – | – | 16.9 | 17 | –
ACAAGCUUUUUGUUCGUCUUAUACACUCCUAAUAAGACAACAUGAGGAUCACCCAUGUAACAAACACGAACUCAUGU [Sesor Array 7 - Jieux - Sensor v3, turn-off variant 2] (puzzle: Sensor v3, turn-off variant 2) | 174 | 369 | 195 | – | – | –
AAAAAAUUGAGAGGAUAUGGUGCCGAAACGGUGCUAGAAGGUUUUAUAAAAAAACAUGAGGAUCACCCAUGUUCAUGUAAAAAA [AK ExNG1-1] (Eterna round: R96, puzzle: Exclusion NG 1) | – | – | – | 17.2 | 18 | 16.1
UUAAAUCAUGUAGGAUAUGCGUGGCGAAGCUAUGCAGAAGGACAUGAGGAUCACCCAUGUUCUGCGGUCUGCGUACAGAUCGCU [JL ENG1 1.04] (Eterna round: R96, puzzle: Exclusion NG 1) | – | – | – | – | – | 14.9
AAAGACCUGGAGGAUAUCAGACACACCAGCGUCUGAGAAGGCCAGACAUGAGGAUCACCCAUGUAGGGUUCUCC [EX6 B.22] (Eterna round: R97, puzzle: Exclusion 6) | – | – | – | 104 | 29.4 | –
CAGUACUGCAAGCUAUGGGACAUGAGGAUCACCCAUGUUCGUCUUAUUGAUCUAGGUACGCUGACGUACCUAGAUCU [JL-sv1-2.20 Brourd mod] (puzzle: Sensor v3, turn-off variant 1) | 16.3 | 20.5 | 15.9 | – | – | –
GUUUAGUGAGGAUAUGUGGCUUCGAUCGUGCGAAGGAGGCUACAGAAGGCACAUGAGGAUCACCCAUGUUCCUC [salish99_ex4_r4_302] (Eterna round: R97, puzzle: Exclusion 4) | – | – | – | 401 | 37.1 | –
AAGAAACAUGAGGAUCACCCAUGUGAGGAUAUGAGCAAGAAAAGAAAAGAAAGAAGACUCAGAAGGCACAAAGG [salish99-ex1_r3_072] (puzzle: Exclusion 1) | 90.2 | 110 | 106 | – | – | –
UACCGGCGGACCGAAGCUUUUUGCUCGUCUUAUACUACAACAUGAGGAUCACCCAUGUGGUGGUGGUCCGUUGUAGU [JL ViennaUCT Bitein mod 4] (puzzle: Sensor v3, turn-off variant 2) | 20.2 | 15.7 | 13.5 | – | – | –
GCUUUAUGCUCGUUAUAACACAUGAGGAUCACCCAUGUUCGGGCUUACGAGUCGUUCUGAAUGUGACCCUGCAUGAG [Eternabot (L2) Solution 47] (Eterna round: R97, puzzle: Sensor, turn-off variant 1) | – | – | – | 200 | 193 | –
CGUUAGUGAGGAUAUGGAAAUAGGUACAUGAGGAUCACCCAUGUUUGAAGGGAAAAGAGCCUAGAAGGCACUAACG [JR_Ex5_Sub055] (Eterna round: R97, puzzle: Exclusion 5) | – | – | – | 23.5 | 35.2 | –
UUGUUAUAUGUAGGAUAUGCGUAUUGUUAUUAUGCAGAAGGACAUGAGGAUCACCCAUGUAUAUUAUUAUUAUAUAUUAUAUAU [Title] (Eterna round: R96, puzzle: Exclusion NG 1) | – | – | – | 87.8 | 27.4 | 22.2
CUUUCGUGAGGAUAUCAGUAGUAAUAAUAUAAAAUUACUACUGAGAAGGCACAUGAGGAUCACCCAUGUUCCUC [salish99_ex3_r3_101] (puzzle: Exclusion 4) | – | 23.7 | – | – | – | –
GGGCUGCGACACAGCCAAACAAAACAUGAGGAUCACCCAUGUCAGGAUAUACCGAUGCAGCAUCUGUAGAAGGGACAGAUCCAA [Lalaon] (Eterna round: R96, puzzle: Exclusion NG 3) | – | – | – | 151 | 79.7 | 68.8

Sequence | apparent KD of MS2 coat protein [1] [nM] | apparent KD of MS2 coat protein [2] [nM] | apparent KD of MS2 coat protein [3] [nM] | apparent KD of MS2 coat protein (input ligand: FMN 200 uM) [nM] | apparent KD of MS2 coat protein (input ligand: none) [nM] | apparent KD of MS2 coat protein [4] [nM]
UACAUGAGGAUCACCCAUGUUUUGUCGUGUAUGGUAUUUAUCUAGGAUAUCAUUUAAUUUAGUUAUGAGAAGGAGAAUAUUAAU [JMF's solution 85] (Eterna round: R96, puzzle: Exclusion NG 3) | – | – | – | 31.3 | 27.8 | 17
AGUACUGACACGUUGGUGUUAGUACCAUAAGCUUGUGAUACAUGAGGAUCACCCAUGUCCUCAUAAGCUCGUCUUAU [salish99_TOv2_r2_096] (puzzle: Sensor v3, turn-off variant 2) | 27.4 | 484 | 26 | – | – | –
AUAAUGUCAGGAUAUACUAAUGAUGAAUGAUCAGACAUUAUGUAGAAGGGACAUGAGGAUCACCCAUGUAAUAU [EX4 #3] (Eterna round: R97, puzzle: Exclusion 4) | – | – | – | 35.5 | 29.1 | –
GUUCAGUCAGGAUAUCAAUCCGCCUGUGAUACGCAGGCGGCUGAGAAGGGACAUGAGGAUCACCCAUGUAAAGA [jl-ex4-4.21 ViennaUCT mod] (Eterna round: R97, puzzle: Exclusion 4) | – | – | – | 51.1 | 37.1 | –
GUCAGCUCGUGAGGAUAUGCACAUGAGGAUCACCCAUGUAAGAUCAAGCUGCUUCGGCAGCAAGUGCAGAAGGUACGAGCUGAU [ENG2/9-C3] (Eterna round: R96, puzzle: Exclusion NG 2) | – | – | – | 257 | 286 | 225
AGCUAGUCAGUAGGAUAUGUAGGAUAUGUGGUUGAGGUUCACCCAACCACAUCAACGACAGAAGGACAGAAGGACUGGUUAGCA [pwkr exNG2 2xFMN 1xF5.5] (Eterna round: R96, puzzle: Exclusion NG 2) | – | – | – | 2320 | 2810 | 1210
GCACGGGUGGUAGGAUAUCCUUGCGAUUAGCAAGGAGAAGGACCACAUGAGGAUCACCCAUGUACCUCAAUUAUCCUUCCGUGC [Eli exng1 - 024] (Eterna round: R96, puzzle: Exclusion NG 1) | – | – | – | 16.8 | 14.5 | 10.4
AAGAAGAUCAAAGGAUAUGGAGCUGAAACGGAGCUAGAAGGUUGUCUAGUUUAACAUGAGGAUCACCCAUGUAGGUACCUCUAA [AK ExNG1-V2-1] (Eterna round: R96, puzzle: Exclusion NG 1) | – | – | – | 850 | 713 | 719
GGCGACCUAGGAUAUACAUGAGGAUCACCCAUGUUUAUCUAUUAGAUGAAGACGGGUUGUAGAAGGAGGAUAUU [JL Geriin mod] (Eterna round: R96, puzzle: Exclusion 3) | – | – | – | 19.5 | 20.2 | 14.6
CCUCAGUAAGGAUAUCAGCUUAAGGAGGUGGUAAAGAGAGCUGAGAAGGUACAUGAGGAUCACCCAUGUUAAAA [Zatite] (puzzle: Exclusion 4) | 64.4 | 44.9 | 50.2 | – | – | –
GACUAGGGAGGAUAUAUUUGCAGUGUACCUCGGGUGAUCGCACUUGAGGAUCACCCAAGUAGAAGGCUCGAGGG [EX2 #26] (Eterna round: R97, puzzle: Exclusion 2) | – | – | – | 41.9 | 46.5 | –
CAGUACUGAGGAUAUACAUGAGGAUCACCCAUGUGUUCCAGCUAGGAAACUAGCAUAAGUAGAAGGCAGUACUG [salish99_ex3_r3_091x] (Eterna round: R96, puzzle: Exclusion 3) | – | – | – | 461 | 23.6 | 18.4
CUUUUGUGAGGAUAUUCGUAGUAAAUGAAUAAAAUUAUUACGGAGAAGGCACAUGAGGAUCACCCAUGUUCCUU [Mat - Exclusion 4 - Eli Mod - D32] (Eterna round: R97, puzzle: Exclusion 4) | – | – | – | 53.2 | 16.7 | –
UCCUUAUCGGUCAGGAUAUACACCCGUUUCUCCUUGUAGAAGGGACAUGAGGAUCACCCAUGUACAGUACAUUU [alecazam66] (Eterna round: R97, puzzle: Brourd's mod of Exclusion 4) | – | – | – | 29.6 | 26.8 | –
UAGAGACAUGAGGAUCACCCAUGUGAGGAUAUAGAGGAAGAUUGCGAGAGGGAGAGGACUAGAAGGCACAGUGA [JR_Exclu1_Sub034] (puzzle: Exclusion 1) | 31.4 | 35.2 | 47.5 | – | – | –
UCUGUUAUGCGAGGAUAUCGACCAUUCCUCUUAACAUGAGGAUCACCCAUGUGCUAAACCUACAACGAGAAGGCGCUCAUACUC [JR_ExcNG2_Sub068] (Eterna round: R96, puzzle: Exclusion NG 2) | – | – | – | 156 | 143 | 102
